Results: article PMC3807708

Assays:
[1] = target: extracellular domain of human interferon-γ receptor 1 (IFN-γ-Rx), mutant S95R (human) (UniProt P15260); assay: SPR; His-tagged receptor immobilised on Ni2+-coated HTG chip; IFN-γ-SC as analyte; PBST; 15 °C; preliminary data of temperature dependency
[2] = target: extracellular domain of human interferon-γ receptor 1 (IFN-γ-Rx), mutant N96W (human) (UniProt P15260); assay: SPR; His-tagged receptor immobilised on Ni2+-coated HTG chip; IFN-γ-SC as analyte; PBST; 25 °C; preliminary data of temperature dependency
[3] = target: extracellular domain of human interferon-γ receptor 1 (IFN-γ-Rx), mutant H222R (human) (UniProt P15260); assay: as above
[4] = target: extracellular domain of human interferon-γ receptor 1 (IFN-γ-Rx), mutant S95R (human) (UniProt P15260); assay: as above
[5] = target: extracellular domain of human interferon-γ receptor 1 (IFN-γ-Rx), wild type (human) (UniProt P15260); assay: as above
[6] = target: extracellular domain of human interferon-γ receptor 1 (IFN-γ-Rx), mutant N96W (human) (UniProt P15260); assay: SPR; His-tagged receptor immobilised on Ni2+-activated HTG chip (ProteOn XPR36); IFN-γ-SC as analyte, 1.2 to 99 nM; PBST (PBS pH 7.4, 0.005% Tween20); 25 °C; 1:1 Langmuir with drift; averages over four different batches of IFN-γ-SC
[7] = target: extracellular domain of human interferon-γ receptor 1 (IFN-γ-Rx), wild type (human) (UniProt P15260); assay: as above
[8] = target: extracellular domain of human interferon-γ receptor 1 (IFN-γ-Rx), mutant N70G (human) (UniProt P15260); assay: as above

“single-chain form of human interferon-γ (IFN-γ-SC) (ligand)” showed a Kd [1] of 38.6 nM, a Kd [2] of 6.1 nM and a Kd [3] of 30.1 nM. The Kd [4] was 69.4 nM, the Kd [5] was 30.5 nM and the Kd [6] was 5.3 nM. For the same substance, the Kd [7] was 21 nM and the Kd [8] was 19 nM.
